Patent US20200397865A1 (ACCELERON PHARMA, published 2020)

T1: ALK4-Fc:ActRIIB-Fc heterodimer (human, UniProt P36896 24-126; Q13705 20-134)
T1 construct: also called ALK4-Fc:ActRIIB-Fc heterodimeric complex; ALK4:ActRIIB heterodimer; not shown: linker and engineered Fc
T1 sequence 1: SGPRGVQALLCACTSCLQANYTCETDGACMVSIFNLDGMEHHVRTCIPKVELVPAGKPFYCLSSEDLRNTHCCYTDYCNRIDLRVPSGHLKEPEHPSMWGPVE
T1 sequence 2: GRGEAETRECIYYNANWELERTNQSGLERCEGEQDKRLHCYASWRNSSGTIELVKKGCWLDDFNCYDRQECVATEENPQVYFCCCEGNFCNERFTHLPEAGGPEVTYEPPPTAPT

B1: ActRIIB-Fc homodimer (Fc fusion, UniProt Q13705 20-134, looked up)
chain: GRGEAETRECIYYNANWELERTNQSGLERCEGEQDKRLHCYASWRNSSGTIELVKKGCWLDDFNCYDRQECVATEENPQVYFCCCEGNFCNERFTHLPEAGGPEVTYEPPPTAPT
notes: also called ActRIIB-Fc:ActRIIB-Fc homodimer; ActRIIB homodimer; not shown: linker and Fc
B2: activin B (ligand, UniProt P09529 293-407, looked up)
chain: GLECDGRTNLCCRQQFFIDFRLIGWNDWIIAPTGYYGNYCEGSCPAYLAGVPGSASSFHTAVVNQYRMRGLNPGTVNSCCIPTKLSTMSMLYFDDEYNIVKRDVPNMIVEECGCA
B3: activin A (ligand, UniProt P08476 311-426, looked up)
chain: GLECDGKVNICCKKQFFVSFKDIGWNDWIIAPSGYHANYCEGECPSHIAGTSGSSLSFHSTVINHYRMRGHSPFANLKSCCVPTKLRPMSMLYYDDGQNIIKKDIQNMIVEECGCS
notes: also called ActA
B4: BMP6 (ligand, UniProt P22004 382-513, looked up)
chain: QQSRNRSTQSQDVARVSSASDYNSSELKTACRKHELYVSFQDLGWQDWIIAPKGYAANYCDGECSFPLNAHMNATNHAIVQTLVHLMNPEYVPKPCCAPTKLNAISVLYFDDNSNVILKKYRNMVVRACGCH

Columns and labels:
Test in all cases: SPR (Biacore), Fc protein captured by anti-Fc antibody, ligand injected
activin B = target: B2
Description: (§1) A Biacore™-based binding assay was used to compare ligand binding selectivity of the ALK4-Fc:ActRIIB-Fc heterodimeric complex described above with that of ActRIIB-Fc and ALK4-Fc homodimer complexes. The ALK4-Fc:ActRIIB-Fc heterodimer, ActRIIB-Fc homodimer, and ALK4-Fc homodimer were independently captured onto the system using an anti-Fc antibody. Ligands were injected and allowed to flow over the captured receptor protein. Results are summarized in the table below, in which ligand off-rates (kd) most indicative of effective ligand traps are denoted in bold font.

activin A = target: B3
Description: as §1

BMP6 = target: B4
Description: as §1

[1] = target: T1, ALK4-Fc:ActRIIB-Fc heterodimer
Description: as §1

ActRIIB-Fc homodimer = target: B1
Description: as §1

Kd [1] [nM]	Kd (ActRIIB-Fc homodimer) [nM]	koff (ActRIIB-Fc homodimer) [s⁻¹]	kon (ActRIIB-Fc homodimer) [M⁻¹ s⁻¹]	koff [1] [s⁻¹]	kon [1] [M⁻¹ s⁻¹]	Binder	further results
						B1	Kd (activin B): 0.02 nM; koff (activin B): 0.0001 s⁻¹; kon (activin B): 5.1e+06 M⁻¹ s⁻¹; Kd (activin A): 0.019 nM; koff (activin A): 0.00023 s⁻¹; kon (activin A): 1.2e+07 M⁻¹ s⁻¹; Kd (BMP6): 0.19 nM; koff (BMP6): 0.0068 s⁻¹; kon (BMP6): 3.2e+07 M⁻¹ s⁻¹
3.4	0.077	0.0011	1.4e+07			BMP9 (ligand, UniProt Q9UK05 320-429, looked up, also called GDF2) SAGAGSHCQKTSLRVNFEDIGWDSWIIAPKEYEAYECKGGCFFPLADDVTPTKHAIVQTLVHLKFPTKVGKACCVPTKLSPISVLYKDDMGVPTLKYHYEGMSVAECGCR	
0.003	0.002	0.00011	5e+07	0.00011	3.8e+07	GDF11 (ligand, UniProt O95390 299-407, looked up, also called BMP11) NLGLDCDEHSSESRCCRYPLTVDFEAFGWDWIIAPKRYKANYCSGQCEYMFMQKYPHTHLVQQANPRGSAGPCCTPTKMSPINMLYFNDKQQIIYGKIPGMVVDRCGCS	
0.006				4e-05	7.1e+06	B2	
0.074	0.011	0.00026	2.3e+07	0.0041	5.6e+07	BMP10 (ligand, UniProt O95393 317-424, looked up) NAKGNYCKRTPLYIDFKEIGWDSWIIAPPGYEAYECRGVCNYPLAEHLTPTKHAIIQALVHLKNSQKASKACCVPTKLEPISILYLDKGVVTYKFKYEGMAVSECGCR	
0.012				0.00015	1.3e+07	B3	
4.9	1.5	0.0022	1.4e+06	0.017	3.4e+06	GDF3 (ligand, UniProt Q9NR23 251-364, looked up) AAIPVPKLSCKNLCHRHQLFINFRDLGWHKWIIAPKGFMANYCHGECPFSLTISLNSSNYAFMQALMHAVDPEIPQAVCIPTKLSPISMLYQDNNDNVILRHYEDMVVDECGCG	
2.7				0.0055	2e+06	B4	
